According to patent US20210238260A1 (published 2021):

biological target: T1, antithrombin III (plasma purified human AT-III), used as the AT-III/unfractionated heparin complex (human, UniProt P01008 33-464); assay: K0.5: AT-III/UFH titrated against FIXa, 10 s, residual cleavage of Mesyl-D-CHG-Gly-Arg-AMC
T1 construct: also called AT-III/UFH

Row | Binder | IC50 [nM]
1 | FIXa-D203N/F205T/K228N (enzyme, also called D39N/F41T/K63N (chymotrypsin numbering)) chain 1: YNSGKLEEFVQGNLERECMEEKCSFEEAREVFENTERTTEFWKQYVDGDQCESNPCLNGGSCKDDINSYECWCPFGFEGKNCELDVTCNIKNGRCEQFCKNSADNKVVCSCTEGYRLAENQKSCEPAVPFPCGRVSVSQTSKLTR chain 2: VVGGEDAKPGQFPWQVVLNGKVNATCGGSIVNEKWIVTAAHCVETGVNITVVAGEHNIEETEHTEQKRNVIRIIPHHNYNAAINKYNHDIALLELDEPLVLNSYVTPICIADKEYTNIFLKFGSGYVSGWGRVFHKGRSALVLQYLRVPLVDRATCLRSTKFTIYNNMFCAGFHEGGRDSCQGDSGGPHVTEVEGTSFLTGIISWGEECAMKGKYGIYTKVSRYVNWIKEKTKLT | 822
2 | FIXa-D203N/F205T/R318Y (enzyme, also called D39N/F41T/R150Y (chymotrypsin numbering)) chain 1: YNSGKLEEFVQGNLERECMEEKCSFEEAREVFENTERTTEFWKQYVDGDQCESNPCLNGGSCKDDINSYECWCPFGFEGKNCELDVTCNIKNGRCEQFCKNSADNKVVCSCTEGYRLAENQKSCEPAVPFPCGRVSVSQTSKLTR chain 2: VVGGEDAKPGQFPWQVVLNGKVNATCGGSIVNEKWIVTAAHCVETGVKITVVAGEHNIEETEHTEQKRNVIRIIPHHNYNAAINKYNHDIALLELDEPLVLNSYVTPICIADKEYTNIFLKFGSGYVSGWGRVFHKGYSALVLQYLRVPLVDRATCLRSTKFTIYNNMFCAGFHEGGRDSCQGDSGGPHVTEVEGTSFLTGIISWGEECAMKGKYGIYTKVSRYVNWIKEKTKLT | 7230
3 | FIXa-D203N/F205T/R338A (enzyme, also called D39N/F41T/R170A (chymotrypsin numbering)) chain 1: YNSGKLEEFVQGNLERECMEEKCSFEEAREVFENTERTTEFWKQYVDGDQCESNPCLNGGSCKDDINSYECWCPFGFEGKNCELDVTCNIKNGRCEQFCKNSADNKVVCSCTEGYRLAENQKSCEPAVPFPCGRVSVSQTSKLTR chain 2: VVGGEDAKPGQFPWQVVLNGKVNATCGGSIVNEKWIVTAAHCVETGVKITVVAGEHNIEETEHTEQKRNVIRIIPHHNYNAAINKYNHDIALLELDEPLVLNSYVTPICIADKEYTNIFLKFGSGYVSGWGRVFHKGRSALVLQYLRVPLVDRATCLASTKFTIYNNMFCAGFHEGGRDSCQGDSGGPHVTEVEGTSFLTGIISWGEECAMKGKYGIYTKVSRYVNWIKEKTKLT | 423
4 | FIXa-D203N/F205T/R338E (enzyme, also called D39N/F41T/R170E (chymotrypsin numbering)) chain 1: YNSGKLEEFVQGNLERECMEEKCSFEEAREVFENTERTTEFWKQYVDGDQCESNPCLNGGSCKDDINSYECWCPFGFEGKNCELDVTCNIKNGRCEQFCKNSADNKVVCSCTEGYRLAENQKSCEPAVPFPCGRVSVSQTSKLTR chain 2: VVGGEDAKPGQFPWQVVLNGKVNATCGGSIVNEKWIVTAAHCVETGVKITVVAGEHNIEETEHTEQKRNVIRIIPHHNYNAAINKYNHDIALLELDEPLVLNSYVTPICIADKEYTNIFLKFGSGYVSGWGRVFHKGRSALVLQYLRVPLVDRATCLESTKFTIYNNMFCAGFHEGGRDSCQGDSGGPHVTEVEGTSFLTGIISWGEECAMKGKYGIYTKVSRYVNWIKEKTKLT | 1170
5 | FIXa-D203N/F205T/R338E/R403E (enzyme, also called D39N/F41T/R170E/R233E (chymotrypsin numbering)) chain 1: YNSGKLEEFVQGNLERECMEEKCSFEEAREVFENTERTTEFWKQYVDGDQCESNPCLNGGSCKDDINSYECWCPFGFEGKNCELDVTCNIKNGRCEQFCKNSADNKVVCSCTEGYRLAENQKSCEPAVPFPCGRVSVSQTSKLTR chain 2: VVGGEDAKPGQFPWQVVLNGKVNATCGGSIVNEKWIVTAAHCVETGVKITVVAGEHNIEETEHTEQKRNVIRIIPHHNYNAAINKYNHDIALLELDEPLVLNSYVTPICIADKEYTNIFLKFGSGYVSGWGRVFHKGRSALVLQYLRVPLVDRATCLESTKFTIYNNMFCAGFHEGGRDSCQGDSGGPHVTEVEGTSFLTGIISWGEECAMKGKYGIYTKVSEYVNWIKEKTKLT | 1520
6 | FIXa-K228N/R318Y/E410N (enzyme, also called K63N/R150Y/E240N (chymotrypsin numbering)) chain 1: YNSGKLEEFVQGNLERECMEEKCSFEEAREVFENTERTTEFWKQYVDGDQCESNPCLNGGSCKDDINSYECWCPFGFEGKNCELDVTCNIKNGRCEQFCKNSADNKVVCSCTEGYRLAENQKSCEPAVPFPCGRVSVSQTSKLTR chain 2: VVGGEDAKPGQFPWQVVLNGKVDAFCGGSIVNEKWIVTAAHCVETGVNITVVAGEHNIEETEHTEQKRNVIRIIPHHNYNAAINKYNHDIALLELDEPLVLNSYVTPICIADKEYTNIFLKFGSGYVSGWGRVFHKGYSALVLQYLRVPLVDRATCLRSTKFTIYNNMFCAGFHEGGRDSCQGDSGGPHVTEVEGTSFLTGIISWGEECAMKGKYGIYTKVSRYVNWIKNKTKLT | 475
